# Measurements reported in patent US20040241165A1 (Takeda / Millennium, published 2004).
# No end group written: not given here.
# Columns and labels:
# [1] = target: human-type OT7T022 (hOT7T022) G protein-coupled receptor protein (human) (UniProt Q9GZQ6); test: cell-based or functional assay
# [2] = target: human-type OT7T022 (hOT7T022) G protein-coupled receptor protein (human) (UniProt Q9GZQ6); test: binding inhibition: displacement of 125I-Tyr-hRFRP-3(8) from membrane fraction of human-type OT7T022-expressing CHO cells
# [3] = target: T1, human-type OT7T022 (hOT7T022) G protein-coupled receptor protein (human, UniProt Q9GZQ6 1-430); test: cell-based or functional assay
# [4] = target: T1, human-type OT7T022 (hOT7T022) G …; test: binding inhibition: displacement of 125I-Tyr-hRFRP-3(8) from membrane fraction of human-type OT7T022-expressing CHO cells
# Method: An assay buffer [50 mM Tris-HCl, pH 7.5, 5 mM EDTA, 0.1% bovine serum albumin (Sigma), 0.5 mM PMSF (Wako Purechemical Industries), 20 μg/ml leupeptin (Peptide Institute, Inc.), 0.1 μg/ml pepstatin A (Peptide Institute, Inc.), 4 μg/ml E64 (Peptide Institute, Inc.) and 10 mM MgCl₂] was prepared. With this buffer, the membrane fraction from human-type OT7T022-expressing CHO cells was diluted to give a concentration of 1 μg/25 μl. […] Sample solutions prepared, NSB and the assay buffer were dispensed into polypropylene 96-well plates in quadruplicate as total 50 μl/well. […] Twenty-five microliter of the membrane fraction solution from human-type OT7T022-expressing CHO cells was added thereto, agitated with a plate mixer and incubated at room temperature for 1.5 hr. Using a cell harvester for 96-well plates, the contents of each well were adsorbed onto a filter unit (GF/C, treated with polyethylene imine) pre-moisturized with washing buffer (50 mM Tris-HCl, pH 7.5). After washing 5 times with the washing buffer, the adsorbate was dried thoroughly. The lower part of the filter unit was sealed. Then, 50 μl of liquid scintillator was added to each well and the upper part of the filter unit was sealed. Radioactivity was measured with a Top Count (Packard), and data were analyzed in triplicate.
# [5] = target: T1, human-type OT7T022 (hOT7T022) G …; test: cell-based or functional assay; remark: listed apart in the source
# [6] = target: G protein-coupled receptor protein rOT7T022L (rat, UniProt Q9EP86 1-432); test: cell-based or functional assay
# G protein-coupled receptor protein rOT7T022L, sequence (Q9EP86 whole entry): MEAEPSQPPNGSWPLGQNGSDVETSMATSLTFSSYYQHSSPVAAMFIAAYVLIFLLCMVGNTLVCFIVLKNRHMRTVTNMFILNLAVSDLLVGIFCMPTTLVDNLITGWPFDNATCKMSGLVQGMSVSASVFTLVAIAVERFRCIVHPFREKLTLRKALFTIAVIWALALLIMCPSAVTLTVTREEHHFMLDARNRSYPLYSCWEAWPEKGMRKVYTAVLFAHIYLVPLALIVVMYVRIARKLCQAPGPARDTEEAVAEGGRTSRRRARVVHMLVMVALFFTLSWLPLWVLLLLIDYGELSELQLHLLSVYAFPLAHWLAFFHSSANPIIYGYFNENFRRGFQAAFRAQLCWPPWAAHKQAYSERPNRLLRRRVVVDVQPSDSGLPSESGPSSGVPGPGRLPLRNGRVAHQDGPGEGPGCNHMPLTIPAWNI
# T1 sequence (Q9GZQ6 whole entry): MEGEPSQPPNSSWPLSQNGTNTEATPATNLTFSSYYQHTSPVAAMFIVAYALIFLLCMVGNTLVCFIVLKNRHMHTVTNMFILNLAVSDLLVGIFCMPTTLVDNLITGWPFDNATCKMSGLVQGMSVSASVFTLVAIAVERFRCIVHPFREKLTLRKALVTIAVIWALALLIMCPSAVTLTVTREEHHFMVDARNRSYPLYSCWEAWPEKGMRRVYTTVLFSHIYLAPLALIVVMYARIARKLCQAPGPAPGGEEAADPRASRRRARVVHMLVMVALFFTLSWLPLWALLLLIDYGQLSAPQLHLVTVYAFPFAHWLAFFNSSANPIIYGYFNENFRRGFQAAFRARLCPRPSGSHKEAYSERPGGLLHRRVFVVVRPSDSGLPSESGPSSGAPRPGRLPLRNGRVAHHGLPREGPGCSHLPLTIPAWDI
# human-type OT7T022 (hOT7T022) G protein-coupled receptor protein (human), sequence (Q9GZQ6 whole entry): as above
Molecule,cAMP production inhibition EC50 [3] [nM],IC50 [4] [nM],"ED50, inhibition of intracellular cAMP increase by forskolin treatment [5] [nM]",further results
"hRFRP-3 (28) (second row with this label, last row of Table 1) (peptide)",–,–,–,cAMP production inhibition EC50 [1]: 4.1 nM; IC50 [2]: 1.6 nM
PNLPQRF-NH2 [Pro-Asn-Leu-Pro-Gln-Arg-Phe-NH2: hRFRP-3(7)],3.2,0.62,–,–
SLNFEELKDWGPKNVIKMSTPAVNKMPHSFANLPLRF-NH2 [hRFRP-1-37],–,–,21,–
SAGATANLPLRSGRNMEVSLVRRVPNLPQRF-NH2 (also called hRFRP-3 (31)) [human-type RFRP-3(31)],4.8,1.3,–,–
PQRF-NH2 [PQRF amide (Pro-Gln-Arg-Phe-NH2)],–,–,≥ 1000,–
MPHSFANLPLRF-NH2 [Met-Pro-His-Ser-Phe-Ala-Asn-Leu-Pro-Leu-Arg-Phe-NH2 (MPHSFANLPLRF amide)],–,–,4.5,"cAMP production inhibitory effect, IC50 [6]: 0.5 nM"
SVTFQELKDWGAKKDIKMSPAPANKVPHSAANLPLRF (ends and bridges not checked) [rRFRP-1-37],–,–,30,–
ATANLPLRSGRNMEVSLVRRVPNLPQRF-NH2 (also called hRFRP-3 (28)) [human-type RFRP-3(28)],5.1,1.1,–,–
NLPQRF-NH2 [Asn-Leu-Pro-Gln-Arg-Phe-NH2: hRFRP-3(6)],37,2.6,–,–
